Measured values as given in patent publication US20020045192A1, “Arf and HDM2 interaction domains and methods of use thereof” (St. Jude Children's Research Hospital, priority 2001, published 2002).

Experiments:
GFP-p19^Arf = molecular target: T1, GFP-p19^Arf (Mus musculus, UniProt Q64364); assay: Nuclear microinjection and live cell imaging of Texas Red labeled Hdm2 constructs in NIH 3T3 cells lacking Arf; assay type: cell-based; conditions: NIH 3T3 Arf-/- cells, nuclear microinjection
T1 construct: expressed in transfected cells; host or cells: NIH 3T3 Arf-/- cells
T1 sequence (Q64364 1-169): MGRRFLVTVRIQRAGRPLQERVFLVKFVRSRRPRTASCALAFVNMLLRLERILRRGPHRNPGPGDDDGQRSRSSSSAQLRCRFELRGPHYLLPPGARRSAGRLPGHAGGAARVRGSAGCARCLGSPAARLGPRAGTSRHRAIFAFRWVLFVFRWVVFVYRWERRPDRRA
Experimental: Proteins for fluorescence microimaging studies were covalently modified using an amine-reactive, sulfosuccinimidyl ester of Texas Red™ (Molecular Probes, Inc., Cat. # C-1171). In brief, purified Hdm2-derived proteins were dialyzed into 100 mM sodium bicarbonate buffer, pH 8.3 at 2-4 mg/ml. The Texas Red™ dye was dissolved in dimethylsulfoxide at 10 mg/ml. Protein and dye 3:1 (vol:vol) were reacted for 1 hour at room temperature followed by purification using size-exclusion chromatography (NAP 5 G-25 columns, Amersham Pharmacia Biotech, Inc.). Labeled protein bands migrated more slowly than unlabeled protein in SDS-polyacrylamide gels consistent with the covalent attachment of dye.
NIH 3T3 Arf^−/− cells passage 10-15 were cultured in Dulbecco's modified Eagle's medium (Dulbecco's modified Eagle's medium (DMEM); Gibco-Invitrogen, Inc.), 10% fetal bovine serum (FBS) at 37° C., 7% CO2. 24 hours prior to transfection, cells were plated on 35 mm dishes coated with poly-D-Lysine (Mattek, Corp.) at a density of 3×10^4 cells per dish. […] An Axiovert 135 TV inverted fluorescence microscope with an automated stage controller (Carl Zeiss, Inc.) and circulating water bath heater (Fisher) was used for both microinjection and imaging. […]

mArfN37 = molecular target: T2, mArfN37 (Mus musculus, UniProt Q64364); assay: SPR binding of Hdm2 constructs and Hdm2 peptides to immobilized His-tagged mArfN37; conditions: His-mArfN37 captured by covalently linked His antibody
T2 construct: An N-terminal fragment of mouse p19^Arf corresponding to residues 1-37 (mArfN37) was purified in a similar manner; made in house
T2 sequence (Q64364 1-37 limits assumed): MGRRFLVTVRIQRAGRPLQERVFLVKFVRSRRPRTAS
Experimental: Binding studies were performed using a Biacore 3000 surface plasmon resonance (SPR) instrument (Biacore, Inc.). A Tetra-His™ Antibody (Qiagen, Inc.; Cat. #34670) was covalently attached to a carboxymethylated gold surface (C-1 chip; Biacore, Inc.). The carboxymethyl groups on the surface were activated with N-ethyl-N′-(3-dimethylaminopropyl) carbodiimide (EDC) and N-hydroxysuccinimide (NHS) and the antibody was attached at pH 7.4 in 20 mM sodium phosphate buffer, 150 mM NaCl (PBS). Reactive sites remaining on the surface were blocked by reaction with ethanolamine. […] Binding was measured by flowing the non-His-tagged analyte through the reference and ligand-containing flow cells in sequence. […] Changes in the SPR response due to solvent differences and the injection process were monitored by injection of HBS-N buffer alone. […]
It has been previously shown that a fragment of mouse p19^Arf containing the N-terminal 37 amino acids (mArfN37) can (i) bind Hdm2, (ii) cause the relocalization of Hdm2 to nucleoli, and (iii) induce cell cycle arrest in MEFs [see, U.S. patent application Ser. No. 09/480,718, Filed Jan. […] However, because mArfN37 is a relatively small polypeptide, it was determined whether it could bind a correspondingly small segment of Hdm2. […]

B1: Hdm2 277-350: Texas Red labeled Hdm2 deletion construct containing residues 277-350 (protein)
chain: QVTVYQAGESDTDSFEEDPEISLADYWKCTSCNEMNPPLPSHCNRCWALRENWLPEDKGKDKGEISEKAKLENS
localization of Texas Red labeled Hdm2 construct when GFP-p19^Arf is expressed (GFP-p19^Arf): localized in the nucleoplasm rather than in nucleoli

B2: Hdm2 210-275: Fragment of Hdm2 corresponding to residues 210-275 of SEQ ID NO:8 (protein, listed as Homo sapiens)
chain: SSSSESTGTPSNPDLDAGVSEHSGDWLDQDSVSDQFSVEFEVESLDSEDYSLSEEGQELSDEDDEV
binding to His-tagged mArfN37 immobilized on the SPR biosensor surface (mArfN37): bind tightly
localization of Texas Red labeled Hdm2 construct when GFP-p19^Arf is expressed (GFP-p19^Arf): nucleolar localization
